T1: Angiopoietin-2 binding to Tie-2 (Homo sapiens, UniProt O15123)
T1 construct: purchased R&D Systems, Inc. BT623 (Angiopoietin-2, biotinylated); 313-TI-100 (Tie-2/Fc)
T1 sequence (O15123 19-496): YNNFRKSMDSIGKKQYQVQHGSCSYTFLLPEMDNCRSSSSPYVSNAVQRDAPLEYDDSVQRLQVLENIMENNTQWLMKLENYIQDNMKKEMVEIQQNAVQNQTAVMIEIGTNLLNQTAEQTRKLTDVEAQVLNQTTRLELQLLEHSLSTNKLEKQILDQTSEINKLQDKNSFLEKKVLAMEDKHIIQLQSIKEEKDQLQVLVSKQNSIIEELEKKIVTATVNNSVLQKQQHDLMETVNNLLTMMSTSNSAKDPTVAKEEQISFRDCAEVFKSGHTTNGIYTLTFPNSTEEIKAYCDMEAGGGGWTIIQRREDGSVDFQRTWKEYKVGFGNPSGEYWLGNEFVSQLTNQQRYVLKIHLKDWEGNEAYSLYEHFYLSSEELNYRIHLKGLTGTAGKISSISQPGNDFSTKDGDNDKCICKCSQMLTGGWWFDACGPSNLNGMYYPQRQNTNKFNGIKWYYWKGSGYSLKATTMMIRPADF


Molecular target: T1, Angiopoietin-2 binding to Tie-2
Assay: Competitive binding assay (modified ELISA): inhibition of Angiopoietin-2 binding to Tie-2
Conditions: for EC50: potency, competitive binding of Angiopoietin-2 to Tie-2, purified mAb; for Efficacy*: ratio of bound Angiopoietin-2 with mAb (30 μg/ml) versus without mAb
Experimental: As discussed above, Angiopoietin-2 exerts its biological effect by binding to the Tie-2 receptor. Monoclonal antibodies that inhibited Angiopoietin-2/Tie-2 binding were identified by a competitive binding assay using a modified ELISA. The mAb used were products of micro-purification from 50 ml of exhaustive supernatants of the hybridoma pools that were specific for Angiopoietin-2 (see above). 96-well Nunc Immplates™ were coated with 100 μl of recombinant human Tie-2/Fc fusion protein (R&D Systems, Inc., Cat. No. 313-TI-100) at 4 μg/ml by incubating overnight at 4° C. The plates were washed four times using Phosphate Buffer Saline (PBS) with a Skan™ Washer 300 station (SKATRON). The wells were blocked by 100 μl of ABX-blocking buffer (0.5% BSA, 0.1% Tween, 0.01% Thimerosal in PBS) for 1 hour.
Biotinylated recombinant human Angiopoietin-2 (R&D Systems, Inc. Cat. No. […] The plates were incubated at room temperature for two hours before the unbound molecules were washed off. Bound biotinylated Angiopoietin-2 was then detected using 100 μl/well of Streptavidin-HRP conjugate at 1:200 by incubating at room temperature for half an hour. After washing twice, the bound Streptavidin was detected by HRP substrate (R&D Systems, Cat. No. DY998). The plates were incubated for 30 minutes before 450 stop solution (100 μl/well, BioFX, Cat# BSTP-0100-01) was added to terminate the reaction. The light absorbance at 450 nm was determined by a Spectramax Plus reader.
Soluble recombinant Tie-2/Fc fusion protein at 10-fold molar excess to Angiopoietin-2 was used as a positive control. At this concentration, Tie-2/Fc inhibited binding of Angiopoietin-2 to immobilized Tie-2 by 80%.
To quantitate the inhibitory activities of the mAb on Angiopoietin-2 binding to Tie-2, the titer was determined for purified mAbs from the top candidates using a competitive binding assay. Each concentration of the mAb was tested in duplicate. The concentration-response relationship was found by curve fitting using Graphpad Prism™ graphic software (non-linear, Sigmoid curve). The maximal inhibition (efficacy) and IC50 (potency) were calculated by the software.

Molecule	inhibition of binding of Angiopoietin-2 to immobilized Tie-2 (positive control at 10-fold molar excess to Angiopoietin-2) [%]	EC50 [µg/mL]	Efficacy*
mAb 5.28.1: fully human anti-Angiopoietin-2 monoclonal antibody, variable regions SEQ ID NO: 17-20 (antibody, listed as Homo sapiens, listed as Homo Sapiens, V domains shown) VH: EVQLVESGGIVVQPGGSLRLSCAASGFTFDDYTMHWVRQTPGKGLEWVSLISWDGGSTYYADSVKGRFTISRDNSKNSLYLQMNSLRTEDTALYYCAKDIDIAVAGTGFDHWGQGTLVTVSSA VL: EIVMTQSPATLSVSPGERATLSCRASQSVTSNLAWYQQKPGQAPRLLIYGALIRATGIPARFSGSGSGTEFTLTISSLQSEDFAVYYCQQYNNWPFTFGPGTKVDIKR	–	2.698	0.3892
mAb 5.86.1: fully human anti-Angiopoietin-2 monoclonal antibody, variable regions SEQ ID NO: 25-28 (antibody, listed as Homo Sapiens, listed as Homo sapiens, V domains shown) VH: QVQLVQSGAEVKKPGASVKVSCKASGYTFTGYHMYWVRQAPGQGLEWLGWINPNSGGTNYAQKFQGRVTMTRDTSISTAYMELSRLRSDDTAVYYCVRDQGIAAAGPFDYWCQGTLVTVSSA VL: DIRMTQSPSSLSASVGDRVTITCRASQRISTYLNWYQQKPGKAPKFLIYAASSLQSGVPSRFSGSGSGTDFTLTISSLQPEDFATYYCQQSYTTPFTFGPGTKVDIKR	–	0.1331	0.3844
mAb 3.3.2: fully human anti-Angiopoietin-2 monoclonal antibody, variable regions SEQ ID NO: 1-4 (antibody, listed as Homo Sapiens, V domains shown) VH: EVQLVESGGGLVQPGGSLRLSCAVSGFTFSSYWMSWVRQAPGKGLEWVANIKQDGSEKYYVDSVKGRFTISRDNAKNSLYLQMNSLRAEDTAVYYCARDQGIAVAGPFDYWGQGTLVTVSSA VL: EIVMTQSPATLSVSPGERATLSCRASQTVSSDLAWYQQKPGQAPRLLIYGASIRATGIPARFSGSGSGTEFTLTISSLQSEDFAVYSCQQYYNWWTFGQGTKVEIKR	–	0.1684	0.3881
mAb 5.16.3: fully human anti-Angiopoietin-2 monoclonal antibody, variable regions SEQ ID NO: 13-16 (antibody, listed as Homo sapiens, listed as Homo Sapiens, V domains shown) VH: QVQLVQSGAEVKKPGASVKVSCKASGYTFTGFYMYWVRQAPGQGLEWMGWINPNSSGTNHAQKFQGRVTMTRDTSISTAYMELSRLRSDDTAVYYCARDQDIATAGPFDYWGQGTLVTVSS VL: EIVMTQSPATLSVSPGERATLSCRASQSVSSNLAWYQQKPGQAPRLLIFGASTRATGIPARFSGSGSGTEFTLTISSLQSEDFAVYYCQQYNNWWTFGRGTKVEIKR	–	0.08532	0.3279
mAb 3.31.2: fully human anti-Angiopoietin-2 monoclonal antibody, variable regions SEQ ID NO: 9-12 (antibody, listed as Homo sapiens, V domains shown) VH: EVQLVESGGGLVQPGGSLRLSCAASGFTFSSYWMSWVRQAPGKGLEWVANIKQDGSDKYYVDSVKGRFTISRDNAKNSLYLRMNSLRAEDTAVFYCARDMGSGWFDYWGQGTLVTVSSA VL: EVVMTQSPATLSVSPGERATLSCRASQSVGSNLAWYQQKPGQAPRLLIYGASTRATGIPARFSGSGSGTEFTLTISSLQSEDFAVYCCQQYNHWWTFGQGTKVEIKR	–	0.04169	0.3751

Further lines, results first:

inhibition of binding of Angiopoietin-2 to immobilized Tie-2 (positive control at 10-fold molar excess to Angiopoietin-2) [%]	EC50 [µg/mL]	Efficacy*	Molecule
80	–	–	Tie-2/Fc: soluble recombinant human Tie-2/Fc fusion protein (R&D Systems), positive control (protein, left off: a dimerising Fc or GST, soluble recombinant human Tie-2/Fc fusion protein (R&D Systems), positive control) AMDLILINSLPLVSDAETSLTCIASGWRPHEPITIGRDFEALMNQHQDPLEVTQDVTREWAKKVVWKREKASKINGAYFCEGRVRGEAIRIRTMKMRQQASFLPATLTMTVDKGDNVNISFKKVLIKEEDAVIYKNGSFIHSVPRHEVPDILEVHLPHAQPQDAGVYSARYIGGNLFTSAFTRLIVRRCEAQKWGPECNHLCTACMNNGVCHEDTGECICPPGFMGRTCEKACELHTFGRTCKERCSGQEGCKSYVFCLPDPYGCSCATGWKGLQCNEACHPGFYGPDCKLRCSCNNGEMCDRFQGCLCSPGWQGLQCEREGIQRMTPKIVDLPDHIEVNSGKFNPICKASGWPLPTNEEMTLVKPDGTVLHPKDFNHTDHFSVAIFTIHRILPPDSGVWVCSVNTVAGMVEKPFNISVKVLPKPLNAPNVIDTGHNFAVINISSEPYFGDGPIKSKKLLYKPVNHYEAWQHIQVTNEIVTLNYLEPRTEYELCVQLVRRGEGGEGHPGPVRRFTTASIGLPPPRGLNLLPKSQTTLNLTWQPIFPSSEDDFYVEVERRSVQKSDQQNIKVPGNLTSVLLNNLHPREQYVVRARVNTKAQGEWSEDLTAWTLSDILPPQPENIKISNITHSSAVISWTILDGYSISSITIRYKVQGKNEDQHVDVKIKNATITQYQLKGLEPETAYQVDIFAENNIGSSNPAFSHELVTLPESQAPADLGGGK
–	0.1557	0.4032	mAb 5.88.3: fully human anti-Angiopoietin-2 monoclonal antibody, variable regions SEQ ID NO: 29-32 (antibody, listed as Homo Sapiens, V domains shown) VH: EVQMVESGGGLVQPGGSLRLSCAASGFTLRSYWMSWVRQAPGKGLEWVANIKEDGSEKYHVDSVKGRFTISRDNAENSLFLQMSSLRAEDTAVYYCARDMEASAGLFDYWGQGTLVTVSSA VL: EIVMTQSPATLSVSPGERAILSCRASQSISSNLAWYQQKPGQAPRLLIYGASTRATGIPARFSGSGSGTEFTLTISSLQSEDFAVYYCQQYNYWWTFGQGTKVEIKR
